Measured values from doi:10.1101/2025.10.01.679806 (bioRxiv, 2025).
Values joined by “and” are separate entries in the source; they are usually repeats but may differ in a detail not shown here. Equal values may be shown once.

What was measured:
[1] = biological target: Bpa 31-146 (Mycobacterium tuberculosis) (UniProt P9WKX3); assay: NMR titration
[2] = biological target: Bpa 31-146 (Mycobacterium tuberculosis) (UniProt P9WKX3); assay: NMR CPMG relaxation dispersion
methyl-TROSY NMR = biological target: the molecule itself; assay: methyl-TROSY NMR
native MS = biological target: the molecule itself; assay: native MS
[3] = biological target: the molecule itself; assay: NMR pulsed-field gradient diffusion

DNA-binding domain of human telomeric repeat-binding factor 1 (residues 378-430) (domain or fragment)
Kd [1]: < 0.2 µM and 1.5 µM
stoichiometry N (hTRF1 molecules per Bpa dodecamer) [1]: 3
exchange rate between Bpa free and bound with hTRF1 (CPMG) [2]: > 1500 s⁻¹

B1: Bpa 31-146 (domain or fragment)
chain: DSDESSLTDLVEQPAKVMRIGTMIKQLLEEVRAAPLDEASRNRLRDIHATSIRELEDGLAPELREELDRLTLPFNEDAVPSDAELRIAQAQLVGWLEGLFHGIQTALFAQQMAARA
stoichiometry N (methyl-TROSY NMR): 12

B2: wild-type (WT) Mycobacterium tuberculosis bacterial proteasome activator Bpa (Rv3780) (natural protein)
chain: MVIGLSTGSDDDDVEVIGGVDPRLIAVQENDSDESSLTDLVEQPAKVMRIGTMIKQLLEEVRAAPLDEASRNRLRDIHATSIRELEDGLAPELREELDRLTLPFNEDAVPSDAELRIAQAQLVGWLEGLFHGIQTALFAQQMAARAQLQQMRQGALPPGVGKSGQHGHGTGQYL
stoichiometry N (native MS): 2
stoichiometry N [3]: 4
